Test results: publication PMC4582189

Assays:
[1] = molecular target: Human recombinant CD13 (human) (UniProt P15144); experiment: SPR; Biacore 3000; human recombinant CD13 amine-coupled to a CM5 chip (11,949 RU, 10 mM sodium acetate pH 5.0); analytes in HBS-EP (10 mM HEPES pH 7.4, 150 mM NaCl, 3 mM EDTA, 0.005% P20), 5 µl/min, 5 min injection, 8 min dissociation; 14-3-3ε 10 µM, antibodies 1 µg/ml; kinetics with 0, 5, 7.5, 10, 15, 20 µM 14-3-3ε; blank surface subtracted
[2] = molecular target: T1, CD13 on the surface of mouse articular chondrocytes (mouse (endogenous in primary articular chondrocytes)) (UniProt P97449)
T1 sequence: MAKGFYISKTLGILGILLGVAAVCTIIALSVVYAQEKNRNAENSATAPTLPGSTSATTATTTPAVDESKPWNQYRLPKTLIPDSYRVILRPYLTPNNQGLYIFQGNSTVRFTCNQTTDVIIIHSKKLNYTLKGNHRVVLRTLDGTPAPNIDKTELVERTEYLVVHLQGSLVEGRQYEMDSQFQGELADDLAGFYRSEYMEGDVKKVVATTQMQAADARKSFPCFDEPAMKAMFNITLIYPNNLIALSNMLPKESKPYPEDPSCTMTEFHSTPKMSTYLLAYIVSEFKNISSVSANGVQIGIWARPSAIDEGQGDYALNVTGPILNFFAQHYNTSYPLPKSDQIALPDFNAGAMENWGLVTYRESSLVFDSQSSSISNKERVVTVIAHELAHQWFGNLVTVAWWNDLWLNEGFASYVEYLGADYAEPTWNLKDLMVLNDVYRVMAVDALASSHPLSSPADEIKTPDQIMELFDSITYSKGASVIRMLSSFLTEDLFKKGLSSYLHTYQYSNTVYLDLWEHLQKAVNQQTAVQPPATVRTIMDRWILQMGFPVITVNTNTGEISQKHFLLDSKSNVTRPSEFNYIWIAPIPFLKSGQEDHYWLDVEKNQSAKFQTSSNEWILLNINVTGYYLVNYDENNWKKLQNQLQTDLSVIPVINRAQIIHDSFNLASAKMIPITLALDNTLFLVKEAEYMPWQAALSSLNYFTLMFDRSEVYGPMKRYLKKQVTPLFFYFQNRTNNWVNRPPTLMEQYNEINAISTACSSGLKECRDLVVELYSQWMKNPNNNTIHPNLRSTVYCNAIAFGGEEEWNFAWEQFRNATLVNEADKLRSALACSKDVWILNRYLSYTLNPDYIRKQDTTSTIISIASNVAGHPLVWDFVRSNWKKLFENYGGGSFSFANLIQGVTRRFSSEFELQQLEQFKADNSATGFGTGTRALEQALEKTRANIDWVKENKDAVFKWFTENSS

[3] = molecular target: T1, CD13 on the surface of mouse articular chondrocytes (mouse (endogenous in primary articular chondrocytes)); remark: listed apart in the source
[4] = molecular target: Human recombinant CD13 (human) (UniProt P15144)

Chain of UniProt P15144 (P15144 whole entry): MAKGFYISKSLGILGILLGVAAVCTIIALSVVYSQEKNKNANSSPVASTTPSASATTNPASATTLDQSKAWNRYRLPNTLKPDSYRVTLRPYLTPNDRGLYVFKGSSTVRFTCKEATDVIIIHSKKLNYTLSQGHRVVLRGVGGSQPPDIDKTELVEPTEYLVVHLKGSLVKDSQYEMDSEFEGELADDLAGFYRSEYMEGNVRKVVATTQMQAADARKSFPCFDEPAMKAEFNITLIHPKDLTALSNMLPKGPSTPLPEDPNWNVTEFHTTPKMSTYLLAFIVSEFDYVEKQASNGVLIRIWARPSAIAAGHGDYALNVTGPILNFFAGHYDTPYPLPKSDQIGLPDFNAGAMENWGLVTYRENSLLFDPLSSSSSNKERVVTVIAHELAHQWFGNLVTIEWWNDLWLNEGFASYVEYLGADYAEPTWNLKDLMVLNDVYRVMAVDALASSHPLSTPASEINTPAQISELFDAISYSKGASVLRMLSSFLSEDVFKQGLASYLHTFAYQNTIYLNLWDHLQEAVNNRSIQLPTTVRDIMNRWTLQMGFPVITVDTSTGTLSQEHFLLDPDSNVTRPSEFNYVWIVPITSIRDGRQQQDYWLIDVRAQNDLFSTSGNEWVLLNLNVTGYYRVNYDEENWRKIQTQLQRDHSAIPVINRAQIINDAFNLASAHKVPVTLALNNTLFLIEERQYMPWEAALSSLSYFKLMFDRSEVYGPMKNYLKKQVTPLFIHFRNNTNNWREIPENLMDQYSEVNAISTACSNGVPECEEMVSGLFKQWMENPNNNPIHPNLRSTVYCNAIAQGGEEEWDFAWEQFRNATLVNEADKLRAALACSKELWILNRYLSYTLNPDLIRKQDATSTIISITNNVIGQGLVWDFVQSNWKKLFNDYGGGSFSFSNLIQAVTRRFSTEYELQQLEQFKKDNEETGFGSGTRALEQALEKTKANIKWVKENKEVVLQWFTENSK

Recombinant human 14-3-3ε (from UniProt P62258 1-255) (natural protein)
Kd [1]: 2.45 µM
response (resonance units) at 10 µM [1]: 78 RU
decrease of 14-3-3ε (1 µg/ml)-induced MMP-13 mRNA synthesis (qRT-PCR) in mouse chondrocytes by the synthetic CD13 peptide EFNpYVW, 0.5 and 5 µg/ml (30% to 56%) [2]: 56%
inhibition of 14-3-3ε (1 µg/ml)-induced MMP-3 mRNA production (qRT-PCR) in mouse chondrocytes by the synthetic CD13 peptide EFNpYVW, 0.5 and 5 µg/ml (48% to 62%) [2]: 62%
decrease of 14-3-3ε (1 µg/ml)-induced MMP-13 mRNA expression (qRT-PCR) in murine chondrocytes by anti-CD13 blocking antibody AB108310, 1 and 5 µg/ml (47% to 88%) [3]: 88%
decrease of 14-3-3ε (1 µg/ml)-induced MMP-13 release (ELISA) in murine chondrocytes by anti-CD13 blocking antibody AB108310, 1 and 5 µg/ml (29% to 32%, P>0.05) [3]: 32%
inhibition of 14-3-3ε (1 µg/ml)-induced MMP-3 mRNA expression (qRT-PCR) in murine chondrocytes by anti-CD13 blocking antibody AB108310, 1 and 5 µg/ml (64% to 90%) [3]: 90%
inhibition of 14-3-3ε (1 µg/ml)-induced MMP-3 protein release (ELISA) in murine chondrocytes by anti-CD13 blocking antibody AB108310, 1 and 5 µg/ml (61% to 87%) [3]: 87%
decrease of 14-3-3ε-induced MMP-3 mRNA expression (qRT-PCR) in human osteoarthritis chondrocytes (endogenous human CD13) by anti-CD13 blocking antibody SJ1D1, 1 µg/ml [4]: 43%
decrease of 14-3-3ε-induced MMP-3 protein release (ELISA) in human osteoarthritis chondrocytes (endogenous human CD13) by anti-CD13 blocking antibody SJ1D1, 1 µg/ml [4]: 59%
